Values quoted from earlier work as cited in paper PMC4741438, “Targeting the SIN3A-PF1 interaction inhibits epithelial to mesenchymal transition and maintenance of a stem cell phenotype in triple negative breast cancer” (Oncotarget, 2015).

Tested on: PAH2
Conditions: in comparison to MAD
Description: The PAH2 domain of SIN3 mediates interactions with a restricted subset of factors containing a conserved SIN3 interaction domain (SID) with homology to amino acids 5-24 of the prototypic PAH2-binding protein, the transcriptional repressor MAD [19-22]. […] Therefore, the use of small molecules based on in silico modeling of the MAD-SID sequence to prevent recruitment of the PF1-containing complexes represents a new and potentially clinically effective therapeutic strategy. While it cannot be ruled out that the effects of SID treatment act through inhibiting the interaction of additional PAH2-binding proteins with SIN3, the finding that PF1 kn ...

B1: PF1: plant homeodomain (PHD)-containing protein PF1 (PHF12) (protein)
chain: MWEKMETKTIVYDLDTSGGLMEQIQALLAPPKTDEAEKRSRKPEKEPRRSGRATNHDSCDSCKEGGDLLCCDHCPAAFHLQCCNPPLSEEMLPPGEWMCHRCTVRRKKREQKKELGHVNGLVDKSGKRTTSPSSDTDLLDRSASKTELKAIAHARILERRASRPGTPTSSASTETPTSEQNDVDEDIIDVDEEPVAAEPDYVQPQLRRPFELLIAAAMERNPTQFQLPNELTCTTALPGSSKRRRKEETTGKNVKKTQHELDHNGLVPLPVKVCFTCNRSCRVAPLIQCDYCPLLFHMDCLEPPLTAMPLGRWMCPNHIEHVVLNQKNMTLSNRCQVFDRFQDTVSQHVVKVDFLNRIHKKHPPNRRVLQSVKRRSLKVPDAIKSQYQFPPPLIAPAAIRDGELICNGIPEESQMHLLNSEHLATQAEQQEWLCSVVALQCSILKHLSAKQMPSHWDSEQTEKADIKPVIVTDSSVTTSLQTADKTPTPSHYPLSCPSGISTQNSLSCSPPHQSPALEDIGCSSCAEKSKKTPCGTANGPVNTEVKANGPHLYSSPTDSTDPRRLPGANTPLPGLSHRQGWPRPLTPPAAGGLQNHTVGIIVKTENATGPSSCPQRSLVPVPSLPPSIPSSCASIENTSTLQRKTVQSQIGPPLTDSRPLGSPPNATRVLTPPQAAGDGILATTANQRFSSPAPSSDGKVSPGTLSIGSALTVPSFPANSTAMVDLTNSLRAFMDVNGEIEINMLDEKLIKFLALQRIHQLFPSRVQPSPGSVGTHQLASGGHHIEVQRKEVQARAVFYPLLGLGGAVNMCYRTLYIGTGADMDVCLTNYGHCNYVSGKHACIFYDENTKHYELLNYSEHGTTVDNVLYSCDFSEKTPPTPPSSIVAKVQSVIRRRRHQKQDEEPSEEAAMMSSQAQGPQRRPCNCKASSSSLIGGSGAGWEGTALLHHGSYIKLGCLQFVFSITEFATKQPKGDASLLQDGVLAEKLSLKPHQGPVLRSNSVP
  affinity for PAH2, fold lower than MAD: 10 fold
